Consider one molecule from patent US8187838B2, “β-Galactoside-α2, 6-sialyltransferase, a gene encoding thereof, and a method for producing thereof” (Japan Tobacco Inc., priority 2006, dated 2012).

“Also recorded” adds a separate entry of the source.

The nature of data set [1]: Sialyltransferase activity in homogenate of E. coli carrying the JT-ISH-224 gene clones (14C-NeuAc transfer to lactose). Format: biochemical. The settings on record: crude enzyme solution from E. coli TB1. On the procedure:
(§1) Sialyltransferase activity was measured as described in J. Biochem., 120, 104-110 (1996) (which is hereby incorporated by reference in its entirety). More specifically, the enzymatic reaction was accomplished by using CMP-NeuAc (70 nmol, containing about 20,000 cpm CMP-NeuAc in which NeuAc was labeled with ^14C; NeuAc represents N-acetylneuraminic acid) as a glycosyl donor substrate, lactose (1.25 μmol) as a glycosyl acceptor substrate, NaCl added to give a concentration of 0.5 M, and the enzyme-containing reaction solution (30 μl) prepared as described above. The enzymatic reaction was carried out at 25° C. for about 10 to 180 minutes. After completion of the reaction, 1.97 ml of 5 mM phosphate buffer (pH 6.8) was added to the reaction solution, which was then applied to a Dowex 1×8 (PO4^3− form, 0.2×2 cm, BIO-RAD) column. The radioactivity was measured for the reaction product, i.e., sialyllactose contained in the eluate (0 to 2 ml) from this column to calculate the enzyme activity. One enzyme unit (1 U) is defined as the amount of enzyme required to transfer 1 micromole of sialic acid per minute.
An induction experiment of protein expression was performed on the five clones obtained in (3) above (i.e., ISH224-N0C0/pTrc, ISH224-N1C0/pTrc, ISH224-N2C0/pTrc, ISH224-N3C0/pTrc and ISH224-N3.1C0/pTrc). A single colony of E. coli TB1 having the expression vector pTrc99A carrying each clone was inoculated into LB medium (6 ml) containing an antibiotic, ampicillin (final concentration 100 μg/mL), and pre-cultured at 30° C. to about A600=0.5, followed by addition of IPTG (isopropyl-β-D(−)-thiogalactopyranoside, Wako Pure Chemical Industries, Ltd., Japan) at a final concentration of 1 mM. After culturing with shaking at 30° C. for an additional 4 hours, the cells in 4 ml culture solution were collected by centrifugation. These cells were suspended in 200 μl of 20 mM Bis-Tris buffer (pH 7.0) containing 0.336% Triton® X-100 and 0.5 M sodium chloride, and ultrasonically homogenized under ice cooling. The resulting homogenate was defined as a crude enzyme solution, diluted 200-fold with 20 mM cacodylate buffer (pH 5.0) containing 0.336% Triton® X-100, and then provided for activity measurement. The reaction was carried out in duplicate. The reaction conditions are as indicated in the footnotes of Tables 1-1 and 1-2.
(§2) Reaction Conditions Reaction composition:
Reaction time: 2 minutes Reaction temperature: 30° C.

Data set [2] is described as follows: Sialyltransferase activity of samples after each purification step. The format is biochemical. As to conditions: for Specific activity (U/mg) / Total activity (U): cacodylate pH 5, 5 minutes, 30° C. How it is done: as §1
The enzyme activity was measured by the method reported in J. Biochem. 120, 104-110 (1996), in the same manner as described in Example 1 under conditions as indicated in the footnote of Table 3-1. For protein quantification, a Coomassie Protein Assay Reagent (PIERCE) was used according to the instruction manual attached thereto. One enzyme unit (1U) was defined as the amount of enzyme required to transfer 1 micromole of sialic acid per minute.
Reaction time: 5 minutes Reaction temperature: 25° C.
The enzyme activity was measured by the method reported in J. Biochem. 120, 104-110 (1996), in the same manner as described in Example 1 under conditions as indicated in the footnote of Table 3-2. For protein quantification, a Coomassie Protein Assay Reagent (PIERCE) was used according to the instruction manual attached thereto. One enzyme unit (1U) was defined as the amount of enzyme required to transfer 1 micromole of sialic acid per minute.
as §2
Reaction time: 5 minutes Reaction temperature: 30° C.

Setting [3] is: after MONO Q (purified fraction).

B1: ISH224-N3C0: truncated protein, SEQ ID NO: 12: methionine plus amino acids 111-514 of SEQ ID NO: 2 (protein, listed as Photobacterium sp.)
chain: MNVVAPSLEVYVDHASLPTLQQLMDIIKSEEENPTAQRYIAWGRIVPTDEQMKELNITSFALINNHTPADLVQEIVKQAQTKHRLNVKLSSNTAHSFDNLVPILKELNSFNNVTVTNIDLYDDGSAEYVNLYNWRDTLNKTDNLKIGKDYLEDVINGINEDTSNTGTSSVYNWQKLYPANYHFLRKDYLTLEPSLHELRDYIGDSLKQMQWDGFKKFNSKQQELFLSIVNFDKQKLQNEYNSSNLPNFVFTGTTVWAGNHEREYYAKQQINVINNAINESSPHYLGNSYDLFFKGHPGGGIINTLIMQNYPSMVDIPSKISFEVLMMTDMLPDAVAGIASSLYFTIPAEKIKFIVFTSTETITDRETALRSPLVQVMIKLGIVKEENVLFWADLPNCETGVCIAV
As for B1, the entries for the “sialyltransferase activity of the expressed clone (in words)” value in data set [1] and in data set [1] (listed as ISH224-N3C0/pTrc) were “smallest clone that retained the activity” and “expressed sialyltransferase; also recorded: retained the activity”, respectively. Further, the “Specific activity (U/mg)” value is 2.0 U/mg in data set [2] (Crude enzyme solution), 151 U/mg in data set [2] (after Hydroxyapatite), 264 U/mg in data set [2] (setting [3]) and 26.5 U/mg in data set [2] (after Q SEPHAROSE). The “Total activity (U)” value stood at 4911 U in data set [2] (Crude enzyme solution), 997 U in data set [2] (after Hydroxyapatite), 808 U in data set [2] (setting [3]) and 3614 U in data set [2] (after Q SEPHAROSE). In data set [2] (purified fraction), the “fold higher specific activity than Pasteurella multocida-derived β-galactoside-α2,3-sialyltransferase (60 U/mg)” value is recorded as “about 4.4 fold”. In data set [2] (purified fraction), the “fold higher specific activity than β-galactoside-α2,6-sialyltransferase derived from Photobacterium damselae strain JT0160 (5.5 U/mg)” value was “about 48 fold”.
